Columns and labels:
Assay in all cases: cell-based or functional assay
[1] = target: T1, C. difficile toxin A from strain CCL678 (ribotype 027, BI/NAP1/027) (Clostridium difficile strain CCL678)
[2] = target: T2, C. difficile toxin A from strain CD196 (ribotype 027, BI/NAP1/027) (Clostridium difficile strain CD196)
[3] = target: T3, C. difficile toxin A from strain HMC553 (ribotype 027, BI/NAP1/027) (Clostridium difficile strain HMC553)
[4] = target: T4, C. difficile toxin A from strain Montreal 5 (ribotype 027, BI/NAP1/027) (Clostridium difficile strain Montreal 5)
[5] = target: T5, C. difficile toxin A from strain Montreal 7.1 (ribotype 027, BI/NAP1/027) (Clostridium difficile strain Montreal …)
[6] = target: T6, C. difficile toxin A from strain Pitt 45 (ribotype 027, BI/NAP1/027) (Clostridium difficile strain Pitt 45)
[7] = target: C. difficile toxin A from strain CCL14137 (ribotype 001) (Clostridium difficile strain CCL14137)
[8] = target: C. difficile toxin A from strain MH5 (ribotype 001) (Clostridium difficile strain MH5)
[9] = target: C. difficile toxin A from strain Pitt 2 (ribotype 001) (Clostridium difficile strain Pitt 2)
[10] = target: C. difficile toxin A from strain UVA17 (ribotype 002) (Clostridium difficile strain UVA17)
[11] = target: C. difficile toxin A from strain 545 (ATCC 43596, ribotype 012) (Clostridium difficile strain 545 (ATCC …))
[12] = target: C. difficile toxin A from strain 630 (ATCC BAA-1382, ribotype 012) (Clostridium difficile strain 630)
[13] = target: C. difficile toxin A from strain UVA30/TL42 (ribotype 014) (Clostridium difficile strain UVA30/TL42)
[14] = target: T1, C. difficile toxin A from strain CCL678 …; remark: listed apart in the source
[15] = target: T2, C. difficile toxin A from strain CD196 …; remark: listed apart in the source
[16] = target: T3, C. difficile toxin A from strain HMC553 …; remark: listed apart in the source
[17] = target: T4, C. difficile toxin A from strain …; remark: listed apart in the source
[18] = target: T5, C. difficile toxin A from strain …; remark: listed apart in the source
[19] = target: T6, C. difficile toxin A from strain Pitt …; remark: listed apart in the source
[20] = target: C. difficile toxin A from strain Pitt 07 (ribotype 078) (Clostridium difficile strain Pitt 07)
[21] = target: Clostridium difficile toxin A (strain VPI 10463) (Clostridium difficile strain VPI 10463, UniProt P16154 1-2710)
Sequence of Clostridium difficile toxin A (strain VPI 10463) (P16154 whole entry): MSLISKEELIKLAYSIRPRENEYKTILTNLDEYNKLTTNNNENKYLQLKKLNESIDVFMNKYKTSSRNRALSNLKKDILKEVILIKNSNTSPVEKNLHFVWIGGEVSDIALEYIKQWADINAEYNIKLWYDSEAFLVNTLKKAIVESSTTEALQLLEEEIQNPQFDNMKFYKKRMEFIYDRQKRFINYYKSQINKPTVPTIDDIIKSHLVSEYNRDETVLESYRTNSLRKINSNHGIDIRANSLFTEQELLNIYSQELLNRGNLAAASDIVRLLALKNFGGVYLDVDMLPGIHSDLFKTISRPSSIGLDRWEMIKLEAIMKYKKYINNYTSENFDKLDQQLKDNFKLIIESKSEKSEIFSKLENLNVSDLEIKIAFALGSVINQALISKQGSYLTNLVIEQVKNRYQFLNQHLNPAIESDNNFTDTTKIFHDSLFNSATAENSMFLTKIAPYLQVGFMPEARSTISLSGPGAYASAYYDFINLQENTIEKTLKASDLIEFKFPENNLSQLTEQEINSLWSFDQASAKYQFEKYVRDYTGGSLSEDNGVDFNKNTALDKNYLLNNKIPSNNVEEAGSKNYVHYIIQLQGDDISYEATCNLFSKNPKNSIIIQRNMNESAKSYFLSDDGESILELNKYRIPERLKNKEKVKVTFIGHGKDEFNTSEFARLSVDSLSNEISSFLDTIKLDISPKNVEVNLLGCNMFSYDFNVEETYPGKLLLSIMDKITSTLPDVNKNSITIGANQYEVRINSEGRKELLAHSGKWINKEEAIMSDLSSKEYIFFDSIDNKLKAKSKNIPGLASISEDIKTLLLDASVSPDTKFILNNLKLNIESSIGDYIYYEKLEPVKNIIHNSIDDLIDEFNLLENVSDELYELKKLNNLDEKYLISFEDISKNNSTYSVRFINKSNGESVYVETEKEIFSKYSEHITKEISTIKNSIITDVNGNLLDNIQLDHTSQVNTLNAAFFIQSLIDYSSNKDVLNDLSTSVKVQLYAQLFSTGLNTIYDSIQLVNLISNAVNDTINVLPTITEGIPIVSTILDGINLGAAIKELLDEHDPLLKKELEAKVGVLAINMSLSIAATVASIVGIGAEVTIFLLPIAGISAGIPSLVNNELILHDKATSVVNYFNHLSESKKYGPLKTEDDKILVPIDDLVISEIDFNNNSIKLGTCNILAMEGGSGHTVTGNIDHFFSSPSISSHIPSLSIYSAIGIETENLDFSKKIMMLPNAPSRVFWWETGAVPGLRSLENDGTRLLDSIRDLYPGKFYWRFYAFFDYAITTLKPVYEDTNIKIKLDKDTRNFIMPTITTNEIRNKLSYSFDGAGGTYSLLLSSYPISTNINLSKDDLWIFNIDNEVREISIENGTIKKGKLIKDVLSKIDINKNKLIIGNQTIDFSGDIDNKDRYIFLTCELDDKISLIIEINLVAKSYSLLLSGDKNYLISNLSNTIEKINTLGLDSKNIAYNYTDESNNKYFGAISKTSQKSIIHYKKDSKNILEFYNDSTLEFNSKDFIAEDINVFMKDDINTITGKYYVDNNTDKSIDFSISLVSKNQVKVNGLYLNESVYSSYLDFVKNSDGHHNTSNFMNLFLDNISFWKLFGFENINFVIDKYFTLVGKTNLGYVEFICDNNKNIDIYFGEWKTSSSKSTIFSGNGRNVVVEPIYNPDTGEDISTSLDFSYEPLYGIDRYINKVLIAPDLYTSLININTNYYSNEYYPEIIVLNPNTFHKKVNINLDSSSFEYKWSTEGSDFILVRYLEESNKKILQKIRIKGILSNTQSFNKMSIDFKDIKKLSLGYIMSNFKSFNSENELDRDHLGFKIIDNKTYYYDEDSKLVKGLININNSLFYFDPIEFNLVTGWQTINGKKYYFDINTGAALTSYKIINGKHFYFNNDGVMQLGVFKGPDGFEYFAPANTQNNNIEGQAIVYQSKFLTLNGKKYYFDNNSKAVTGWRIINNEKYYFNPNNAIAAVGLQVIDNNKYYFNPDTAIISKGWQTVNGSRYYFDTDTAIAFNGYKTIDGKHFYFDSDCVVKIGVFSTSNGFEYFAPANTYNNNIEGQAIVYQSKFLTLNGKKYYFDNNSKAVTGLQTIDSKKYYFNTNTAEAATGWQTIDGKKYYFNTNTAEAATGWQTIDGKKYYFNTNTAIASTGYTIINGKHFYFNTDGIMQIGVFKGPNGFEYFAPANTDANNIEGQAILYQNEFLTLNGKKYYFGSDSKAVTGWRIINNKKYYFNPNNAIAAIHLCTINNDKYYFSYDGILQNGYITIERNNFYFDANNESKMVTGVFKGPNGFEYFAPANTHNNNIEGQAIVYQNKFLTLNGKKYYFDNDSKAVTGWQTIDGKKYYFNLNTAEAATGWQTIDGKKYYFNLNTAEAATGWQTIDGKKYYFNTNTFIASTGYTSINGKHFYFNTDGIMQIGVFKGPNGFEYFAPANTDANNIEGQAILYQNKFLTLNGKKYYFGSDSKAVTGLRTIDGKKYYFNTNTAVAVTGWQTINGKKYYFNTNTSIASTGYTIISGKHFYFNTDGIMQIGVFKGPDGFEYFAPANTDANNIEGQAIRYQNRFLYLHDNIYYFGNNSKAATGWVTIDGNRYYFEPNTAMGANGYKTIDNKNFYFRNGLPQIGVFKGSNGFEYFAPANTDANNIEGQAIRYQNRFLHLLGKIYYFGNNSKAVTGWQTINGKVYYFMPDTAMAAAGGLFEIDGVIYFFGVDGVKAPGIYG

[22] = target: T7, Clostridium difficile toxin B (strain VPI 10463) (Clostridium difficile strain VPI 10463, UniProt P18177 2-2366)
T7 sequence (P18177 2-2366): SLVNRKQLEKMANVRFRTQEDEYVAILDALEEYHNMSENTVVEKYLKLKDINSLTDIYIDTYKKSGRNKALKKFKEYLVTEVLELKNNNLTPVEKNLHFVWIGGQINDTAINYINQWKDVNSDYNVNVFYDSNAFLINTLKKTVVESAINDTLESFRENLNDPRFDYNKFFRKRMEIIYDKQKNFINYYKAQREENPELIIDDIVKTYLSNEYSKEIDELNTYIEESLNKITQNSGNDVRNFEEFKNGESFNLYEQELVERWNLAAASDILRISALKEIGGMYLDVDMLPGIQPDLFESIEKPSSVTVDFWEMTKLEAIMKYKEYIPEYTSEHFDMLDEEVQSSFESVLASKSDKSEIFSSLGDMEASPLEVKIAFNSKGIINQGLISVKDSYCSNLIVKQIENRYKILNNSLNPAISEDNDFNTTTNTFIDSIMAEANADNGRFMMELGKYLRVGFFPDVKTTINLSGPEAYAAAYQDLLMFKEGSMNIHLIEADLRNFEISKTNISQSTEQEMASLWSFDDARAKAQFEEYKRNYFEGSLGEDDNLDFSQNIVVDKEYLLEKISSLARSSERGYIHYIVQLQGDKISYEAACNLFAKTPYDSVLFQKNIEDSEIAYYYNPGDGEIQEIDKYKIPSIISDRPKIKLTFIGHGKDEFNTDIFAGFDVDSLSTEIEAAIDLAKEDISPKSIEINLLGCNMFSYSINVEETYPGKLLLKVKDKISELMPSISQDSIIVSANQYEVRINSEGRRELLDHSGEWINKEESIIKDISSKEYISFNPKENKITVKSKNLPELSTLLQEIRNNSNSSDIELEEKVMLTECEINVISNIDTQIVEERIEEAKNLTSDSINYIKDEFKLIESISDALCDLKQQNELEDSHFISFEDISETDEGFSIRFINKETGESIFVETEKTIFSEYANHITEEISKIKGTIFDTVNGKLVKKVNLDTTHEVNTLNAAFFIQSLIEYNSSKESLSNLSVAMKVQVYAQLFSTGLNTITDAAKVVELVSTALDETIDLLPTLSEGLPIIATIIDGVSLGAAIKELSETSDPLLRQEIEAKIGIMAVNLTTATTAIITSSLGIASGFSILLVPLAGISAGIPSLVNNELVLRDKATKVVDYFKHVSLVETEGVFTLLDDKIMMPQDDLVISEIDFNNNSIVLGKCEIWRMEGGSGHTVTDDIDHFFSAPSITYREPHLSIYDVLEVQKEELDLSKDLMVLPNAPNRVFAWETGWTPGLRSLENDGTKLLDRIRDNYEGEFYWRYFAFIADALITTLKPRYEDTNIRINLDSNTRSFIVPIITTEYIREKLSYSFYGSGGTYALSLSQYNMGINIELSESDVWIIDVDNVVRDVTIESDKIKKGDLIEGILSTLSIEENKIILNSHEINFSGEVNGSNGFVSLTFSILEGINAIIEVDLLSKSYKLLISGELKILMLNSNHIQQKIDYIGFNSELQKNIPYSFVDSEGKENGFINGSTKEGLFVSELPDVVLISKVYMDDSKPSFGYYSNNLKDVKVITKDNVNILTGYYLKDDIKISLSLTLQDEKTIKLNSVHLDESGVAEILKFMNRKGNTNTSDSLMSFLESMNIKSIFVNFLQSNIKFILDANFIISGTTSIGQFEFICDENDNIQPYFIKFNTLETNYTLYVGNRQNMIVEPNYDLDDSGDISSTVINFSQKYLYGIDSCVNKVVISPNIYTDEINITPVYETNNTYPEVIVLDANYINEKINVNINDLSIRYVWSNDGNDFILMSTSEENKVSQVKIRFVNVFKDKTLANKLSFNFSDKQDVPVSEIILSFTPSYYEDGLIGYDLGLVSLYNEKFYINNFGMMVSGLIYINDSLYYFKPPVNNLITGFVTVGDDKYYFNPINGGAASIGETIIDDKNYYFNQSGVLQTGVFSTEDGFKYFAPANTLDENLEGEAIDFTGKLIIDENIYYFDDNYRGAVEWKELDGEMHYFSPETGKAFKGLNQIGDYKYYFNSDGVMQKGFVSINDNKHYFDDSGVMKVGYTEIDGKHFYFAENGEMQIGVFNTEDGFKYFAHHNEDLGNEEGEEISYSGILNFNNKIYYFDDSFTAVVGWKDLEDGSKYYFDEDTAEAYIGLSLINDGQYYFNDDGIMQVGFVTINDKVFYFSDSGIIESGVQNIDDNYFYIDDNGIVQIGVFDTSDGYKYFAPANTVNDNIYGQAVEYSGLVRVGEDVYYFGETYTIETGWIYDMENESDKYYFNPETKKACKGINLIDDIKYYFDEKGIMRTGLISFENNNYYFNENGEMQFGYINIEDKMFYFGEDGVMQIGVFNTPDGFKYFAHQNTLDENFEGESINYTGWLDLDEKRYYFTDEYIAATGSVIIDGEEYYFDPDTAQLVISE

[23] = target: T7, Clostridium difficile toxin B (strain …); remark: listed apart in the source

B1: humanized anti-C. difficile toxin A monoclonal antibody PA-50 (antibody, V domains shown)
VH: QVQLVQSGAEVKKPGASVKVSCKASGYTFTDYNMDWVRQAPGQRLEWIGDINPKYDIIGHNPKFMGKATITVDKSASTAYMELSSLRSEDTAVYYCARSDRGWYFDVWGQGTLVTVSS
VL: EIVLTQSPATLSLSPGERATLSCRASSSVNYMNWYQQKPGQAPRPRIYATSNLASGVPARFSGSGSGTDYTLTISSLEPEDFAVYYCQQWSSRTFGGGTKLEIKR
For B1, the “neutralization activity on T-84 cells relative to comparator mAb CDA-1” value [1] was greater than 100 fold, the “neutralization activity on T-84 cells relative to comparator mAb CDA-1” value [2] was greater than 100 fold and the “neutralization activity on T-84 cells relative to comparator mAb CDA-1” value [3] was greater than 100 fold. For the same binder, the “neutralization activity on T-84 cells relative to comparator mAb CDA-1” value [4] was greater than 100 fold, the “neutralization activity on T-84 cells relative to comparator mAb CDA-1” value [5] was greater than 100 fold and the “neutralization activity on T-84 cells relative to comparator mAb CDA-1” value [6] was greater than 100 fold. The “EC50, neutralization of supernatant cytotoxicity on T-84 cells” value (“EC50, neutralization … on T-84 cells” for short) [7] was 0.039 nM, the “EC50, neutralization … on T-84 cells” value [8] was 0.127 nM and the “EC50, neutralization … on T-84 cells” value [9] was 0.027 nM. The “EC50, neutralization … on T-84 cells” value [10] was 0.026 nM, the “EC50, neutralization … on T-84 cells” value [11] was 0.038 nM and the “EC50, neutralization … on T-84 cells” value [12] was 0.054 nM. For the same binder, the “EC50, neutralization … on T-84 cells” value [13] was 0.051 nM, the “EC50, neutralization … on T-84 cells” value [14] was 0.029 nM and the “EC50, neutralization … on T-84 cells” value [15] was 0.061 nM. The “EC50, neutralization … on T-84 cells” value [16] was 0.029 nM, the “EC50, neutralization … on T-84 cells” value [17] was 0.029 nM and the “EC50, neutralization … on T-84 cells” value [18] was 0.031 nM. The “EC50, neutralization … on T-84 cells” value [19] was 0.043 nM, the “EC50, neutralization … on T-84 cells” value [20] was 0.032 nM and the “EC50, neutralization … on T-84 cells” value [21] was 0.02 nM.

B2: humanized anti-C. difficile toxin B monoclonal antibody PA-41 (antibody, V domains shown)
VH: QVQLVQSGAEVKKPGASVKVSCKASGYPFTNYFMHWVRQAPGQRLEWIGRINPYNGATSYSLNFRDKATITLDKSASTAYMELSSLRSEDTAVYYCARSTITSPLLDFWGQGTLVTVSS
VL: EIVLTQSPATLSLSPGERATLSCRASQSVGTSIHWYQQKPGQAPRLLIKFASESISGIPARFSGSGSGTDFTLTISSLEPEDFAVYYCQQSNKWPFTFGQGTKLEIKR
In the case of B2, the “EC50, neutralization of toxin B cytotoxicity on CHO-K1 cells (toxin B 2 pg/mL)” value [22] is reported as 6000 nM, the “EC50, neutralization on IMR-90 cells” value [22] is reported as 5000 nM and the “EC50, neutralization of supernatant cytotoxicity on CHO-K1 cells” value [23] is reported as 0.0077 nM.
